By koff is commonly meant the rate constant with which the complex falls apart. A higher koff goes with a short-lived complex. For orientation: kon means a measure of how fast the partners come together. By Kd is commonly meant the constant that tells how readily two partners part at equilibrium. Low readings indicate tighter binding, high ones weaker binding.

The values below come from US20060252130A1 (ACGT PREGENOMICS, published 2006).

Ends that are not written are not given here.

B2: fluorescence-marked proline-rich peptide Cys-Ser-Gly-Pro-Pro-Pro-Pro-Pro-Pro-Pro-Pro-Leu-Pro (fluorescein-maleimide label) (peptide)
peptide: C(fluorescein‑maleimide)SGPPPPPPPPLP
notes: also called fluorescence-labeled peptide; fluorescence-marked peptide
B3: synthetic proline-rich peptide Cys-Ser-Gly-Pro-Pro-Pro-Pro-Pro-Pro-Pro-Pro-Leu-Pro (peptide)
peptide: CSGPPPPPPPPLP
notes: also called CSGP8LP; proline peptide

The target in test [1] is B2. Kind of test: incubation of labelled peptide with PyVP1-3C-WW[N-14], capsid assembly, gel filtration. On the technique in general: Size exclusion chromatography separates by hydrodynamic size, large species first.
The target in test [2] is T1, PyVP1-WW150 (mouse polyoma virus; Mus musculus …).
T1 construct: WW domain inserted between VP1 positions 148 and 149; Soluble pentamer after intein cleavage; also called PyVP1-WW150 variant; PyVP1-WW150 protein
Kind of test: gel filtration (TSK gel G5000PWXL), co-elution of labelled peptide with capsids and pentamers, absorption at 490 nm.

Test [3] has as its target T1, PyVP1-WW150. Kind of test: SPR (Biacore X), peptide on CM5 chip, Dulbecco's PBS.
A further test addresses T2, PyVP1-WW150-D8C (mouse polyoma virus; Mus musculus …).
T2 construct: Position 8 is counted on the WW domain itself
Kind of test: surface plasmon resonance; strengthened by 500 mM ammonium sulfate.

Test [4] addresses T1, PyVP1-WW150. Briefly: SPR (Biacore X), peptide on CM5 chip; summary of the three analyses of example 2. (Surface plasmon resonance follows binding to a sensor surface in real time, without labels.)
In test [5] the target is T1, PyVP1-WW150. Briefly: SPR (Biacore X), peptide on CM5 chip, 10 mM HEPES, 1 mM EDTA, 150 mM NaCl, pH 7.2, 25 C, protein 5 to 50 nM.
Test [6] addresses B3. Briefly: affinity column with peptide, crude extract, wash with 2 M NaCl, elution with 2% SDS, SDS gel.

B1: PyVP1-3C-WW[N-14] (other)
chain: MSGWTEHKSPDGRTYYYNTETKQSTWEKPDDGHMSTKACPRPAPVPKLLIKGGMEVLDLVTGPDSVTEIEAFLNPRMGQPPTPESLTEGGQYYGWSRGINLATSDTEDSPGNNTLPTWSMAKLQLPMLNEDLTCDTLQMWEAVSVKTEVVGSGSLLDVHGFNKPTDTVNTKGISTPVEGSQYHVFAVGGEPLDLQGLVTDARTKYKEEGVVTIKTITKKDMVNKDQVLNPISKAKLDKDGMYPVEIWHPDPAKNENTRYFGNYTGGTCTPPVLQFTNTLTTVLLDENGVGPLSKGEGLYLSSVDIMGWRVTRNYDVHHWRGLPRYFKITLRKRWVKNPYPMASLISSLFNNMLPQVQGQPMEGENTQVEEVRVYDGTEPVPGDPDMTRYVDRFGKTKTVFPPG
notes: The range 15-384 follows from 'N-terminus shortened by 14 amino acids'
As for B1, the binding result in test [1] was “binds”.
As for B2, the binding result with PyVP1-WW150 [2] is listed as “binds”.
B3: in the test with PyVP1-WW150 [3], the off-rate (koff) turned out to be 0.0018 s⁻¹ and the on-rate constant (kon) came to 200000 M⁻¹ s⁻¹. The binding result in the test with PyVP1-WW150-D8C was “binds”. The molecule further displayed a Kd with PyVP1-WW150 [4] of 20 nM. In addition, in the test with PyVP1-WW150 [5], the Kd was determined as 5 nM.

B4: [PyVP1-3C-WW1]-intein-CBD (other)
chain: MSGWTEHKSPDGRTYYYNTETKQSTWEKPDDGHMAPKRKSGVSKSETKSTKACPRPAPVPKLLIKGGMEVLDLVTGPDSVTEIEAFLNPRMGQPPTPESLTEGGQYYGWSRGINLATSDTEDSPGNNTLPTWSMAKLQLPMLNEDLTCDTLQMWEAVSVKTEVVGSGSLLDVHGFNKPTDTVNTKGISTPVEGSQYHVFAVGGEPLDLQGLVTDARTKYKEEGVVTIKTITKKDMVNKDQVLNPISKAKLDKDGMYPVEIWHPDPAKNENTRYFGNYTGGTCTPPVLQFTNTLTTVLLDENGVGPLSKGEGLYLSSVDIMGWRVTRNYDVHHWRGLPRYFKITLRKRWVKNPYPMASLISSLFNNMLPQVQGQPMEGENTQVEEVRVYDGTEPVPGDPDMTRYVDRFGKTKTVFPPG
notes: also called (PyVP1-3C-WW1)-intein-CBD fusion protein
In the case of B4, in test [6], the binding result is given as “binds”.
